B1: m42.127 Fab / Biotinylated junctional peptide Pep21 (PfCSP peptide 21) [modified: biotin (position not stated); biotin (position not stated)] [Plasmodium falciparum (clone 3D7)] (parent complex)
chain 1: QVQLVQSGAEVKKPGASVKVSCKASGYTFTSYAIHWVRQAPGQRLEWMGWIKAGNGNTRYSQKFQDRVTITRDTSASTAYMELSSLRSEDTAVYYCALLTVITPDDTFDIWGQGTMVTVSSASTKGPSVFPLAPSSKSTSGGTAALGCLVKDYFPEPVTVSWNSGALTSGVHTFPAVLQSSGLYSLSSVVTVPSSSLGTQTYICNVNHKPSNTKVDKKVEPKSCDKGLEVLFQ
chain 2: not shown
chain 3: NPDPNANPNVDPNAN

Variants of: B1
Experiment: BLI; read off a plot

| Variant | Kd [nM] |
| --- | --- |
| chain 1 T103R, chain 1 P104Q | ~18 |
| chain 1 T103R, chain 1 P104R | ~15 |
| chain 1 T103K | ~15 |
| chain 1 P104M | ~22 |
| chain 1 T100M | ~24 |
| chain 1 Y32K | ~18 |
| chain 1 P104Q | ~20 |
